# Assay results reported in the supplement of paper PMC10724198.
# ± gives the standard deviation of the averaged measurements.
# Columns and labels:
# [1] = test system: Saccharomyces cerevisiae; test: protein stability index of tFT-peptide fusion (C-terminal peptide) (PSI (0-1 scale)); higher = more stable (slower turnover)
# Experimental: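 MPS profiling in S. cerevisiae of the tFT-X12 degron library: putative degron peptides plus stable controls, 12 aa, fused to the C-terminus of a sfGFP-mCherry timer. Cells are FACS-sorted into 8 mCherry/sfGFP bins and deep-sequenced. PSI runs from 0 (unstable) to 1 (stable). Backgrounds are wild type, das1Δ and doa10Δ at 30 °C, and wild type, das1Δ, cdc34-1 and cdc53-1 at 37 °C; 2-3 technical replicates each.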
# [2] = test system: Saccharomyces cerevisiae; test: as above; settings: genetic background: wild type; temperature: 30 C
# [3] = genetic background: cdc34-1, temperature: 37 C
# [4] = genetic background: cdc53-1, temperature: 37 C
# [5] = genetic background: das1 deletion, temperature: 30 C
# [6] = genetic background: das1 deletion, temperature: 37 C
# [7] = genetic background: doa10 deletion, temperature: 30 C
# [8] = genetic background: wild type, temperature: 30 C
# [9] = genetic background: wild type, temperature: 37 C
# 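Note: PSI is a weighted mean of sequencing reads over stability bins, variants kept only with over 10 reads, mCherry proximal and sfGFP distal, peptide attached via GGGS linker.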
Sequence,"protein stability index [1, 3]","protein stability index [1, 4]","protein stability index [1, 5]","protein stability index [1, 6]","protein stability index [1, 7]","protein stability index [1, 8]","protein stability index [1, 9]",protein stability index [2]
GFSSRWLMQYMV,0.585 ± 0.05,0.737 ± 0.0088,0.665 ± 0.021,0.747 ± 0.0094,0.326 ± 0.014,0.375 ± 0.11,0.462 ± 0.042,0.369 ± 0.0081
GGGGGGGGGGVG,0.313 ± 0.019,0.427 ± 0.044,0.397 ± 0.014,0.457 ± 0.057,0.391 ± 0.004,0.387 ± 0.024,0.446 ± 0.03,0.514 ± 0.045
GGGVGVAVVLFW,0.432 ± 0.024,0.501 ± 0.012,0.34 ± 0.027,0.53 ± 0.011,0.308 ± 0.011,0.342 ± 0.02,0.5056 ± 0.0016,0.417 ± 0.016
GGGVWWGVLVLG,0.37 ± 0.028,0.451 ± 0.064,0.31 ± 0.037,0.50956 ± 0.00012,0.262 ± 0.0072,0.309 ± 0.033,0.4678 ± 0.0034,0.46142 ± 8.8e-05
GGGWAVLLWVQV,0.387 ± 0.019,0.457 ± 0.043,0.339 ± 0.029,0.476 ± 0.0087,0.29 ± 0.01,0.317 ± 0.017,0.442 ± 0.007,0.406 ± 0.022
GGVVGGVGVYDG,0.702 ± 0.012,0.7445 ± 0.0015,0.635 ± 0.016,0.748 ± 0.019,0.65 ± 0.021,0.65 ± 0.02,0.706 ± 0.015,0.707 ± 0.019
GGWGVFGVWVWM,0.476 ± 0.051,0.557 ± 0.0062,0.429 ± 0.027,0.59 ± 0.0025,0.186 ± 0.0072,0.214 ± 0.031,0.422 ± 0.012,0.324 ± 0.0082
GGYVTVTSVTVV,0.587 ± 0.051,0.62 ± 0.02,0.501 ± 0.025,0.605 ± 0.019,0.499 ± 0.035,0.506 ± 0.011,0.611 ± 0.015,0.468 ± 0.039
GHYQGVCHRRIC,0.657 ± 0.026,0.725 ± 0.019,0.64 ± 0.028,0.7667 ± 0.0054,0.18 ± 0.016,0.176 ± 0.024,0.368 ± 0.033,0.34 ± 0.015
GIISMYVARRLG,0.594 ± 0.037,0.689 ± 0.0079,0.661 ± 0.015,0.69833 ± 0.00068,0.149 ± 0.016,0.173 ± 0.034,0.3 ± 0.022,0.285 ± 0.019
GKVGGRMWVWRV,0.592 ± 0.041,0.73 ± 0.015,0.63 ± 0.013,0.72579 ± 0.00022,0.116 ± 0.014,0.129 ± 0.019,0.2406 ± 0.0022,0.257 ± 0.0031
GLGVIFFLLGYG,0.469 ± 0.028,0.507 ± 0.023,0.336 ± 0.033,0.5631 ± 0.0018,0.292 ± 0.019,0.327 ± 0.016,0.551 ± 0.051,0.429 ± 0.015
GLLFWSGVVSWV,0.2627 ± 0.0023,0.388 ± 0.058,0.243 ± 0.038,0.507 ± 0.0027,0.225 ± 0.0065,0.263 ± 0.038,0.504 ± 0.014,0.4 ± 0.0088
GLLVFRCINLRC,0.449 ± 0.013,0.47 ± 0.0085,0.429 ± 0.045,0.5558 ± 0.005,0.421 ± 0.021,0.357 ± 0.03,0.471 ± 0.017,0.357 ± 0.038
GLPGYAWGRSGG,0.6759 ± 0.0045,0.788 ± 0.02,0.743 ± 0.037,0.782 ± 0.012,0.776 ± 0.037,0.775 ± 0.029,0.7221 ± 0.0024,0.586 ± 0.22
GLSLVCWIVVLG,0.153 ± 0.033,0.202 ± 0.066,0.189 ± 0.037,0.347 ± 0.017,0.1899 ± 0.0016,0.178 ± 0.032,0.318 ± 0.0055,0.306 ± 0.014
GLVVMFVIAGGG,0.405 ± 0.0067,0.459 ± 0.008,0.284 ± 0.05,0.5057 ± 0.00061,0.2577 ± 0.0014,0.299 ± 0.034,0.464 ± 0.015,0.404 ± 0.015
GMGRVLVEVLLC,0.293 ± 0.0086,0.451 ± 0.036,0.317 ± 0.033,0.5187 ± 0.0023,0.0999 ± 0.0047,0.101 ± 0.021,0.0812 ± 0.017,0.165 ± 0.029
GMLIYVIGGLSH,0.652 ± 0.016,0.652 ± 0.04,0.435 ± 0.027,0.667 ± 0.017,0.438 ± 0.011,0.4464 ± 0.0034,0.626 ± 0.019,0.508 ± 0.06
GMMLLRFIIRWY,0.0773 ± 0.026,0.15 ± 0.027,0.141 ± 0.04,0.268 ± 0.0083,0.138 ± 0.0027,0.134 ± 0.03,0.212 ± 0.0061,0.173 ± 0.045
GPFVRSALIFIF,0.535 ± 0.04,0.582 ± 0.045,0.467 ± 0.021,0.603 ± 0.034,0.304 ± 0.0055,0.343 ± 0.026,0.547 ± 0.022,0.407 ± 0.018
GRAVGLANFTIK,0.659 ± 0.02,0.756 ± 0.033,0.641 ± 0.026,0.735 ± 0.015,0.65 ± 0.044,0.68 ± 0.042,0.7006 ± 0.0042,0.129 ± 0.012
GRCGGPRSLGVG,0.562 ± 0.036,0.589 ± 0.022,0.52 ± 0.022,0.5989 ± 0.001,0.5493 ± 0.0022,0.538 ± 0.012,0.5853 ± 0.0057,0.547 ± 0.07
GSGCLFNRWRIL,0.6956 ± 0.0048,0.7303 ± 0.0059,0.6487 ± 0.0063,0.733 ± 0.022,0.169 ± 0.034,0.196 ± 0.027,0.46 ± 0.0074,0.287 ± 0.045
GSLLWSGWSTCY,0.768 ± 0.018,0.811 ± 0.011,0.698 ± 0.058,0.826 ± 0.0092,0.6696 ± 0.0058,0.693 ± 0.022,0.763 ± 0.0077,0.761 ± 0.043
GSWGGGWRYVGW,0.761 ± 0.037,0.792 ± 0.016,0.663 ± 0.012,0.7947 ± 0.0036,0.664 ± 0.037,0.685 ± 0.023,0.759 ± 0.011,0.734 ± 0.033
GTSDLIALLMLT,0.688 ± 0.047,0.7275 ± 0.0021,0.607 ± 0.011,0.7058 ± 0.0013,0.361 ± 0.026,0.403 ± 0.045,0.601 ± 0.007,0.509 ± 0.083
GTWCLAMARFCA,0.615 ± 0.056,0.755 ± 0.016,0.662 ± 0.026,0.762 ± 0.047,0.351 ± 0.025,0.375 ± 0.025,0.606 ± 0.039,0.4775 ± 0.0038
GVFVVVGEASVH,0.546 ± 0.0025,0.5995 ± 0.0049,0.402 ± 0.023,0.574 ± 0.0029,0.389 ± 0.021,0.406 ± 0.017,0.564 ± 0.011,0.421 ± 0.023
GVFVWVVFVCTM,0.145 ± 0.015,0.315 ± 0.029,0.198 ± 0.017,0.3718 ± 0.00094,0.167 ± 0.0025,0.201 ± 0.013,0.315 ± 0.028,0.268 ± 0.053
